From US20260176336A1 (MESTAG THERAPEUTICS, published 2026)
Read-outs that look alike come from different tables or passages of the source.

How the values were obtained:
[1] = target: T1, human LTBR endogenously expressed on cells (HepG2, A549, A375, HCC1187, RPMI-7951, primary human breast CAFs) (human, UniProt P36941 31-435); assay: flow cytometry, inhibition of PE-LIGHT (24 nM final) binding to A549 cells; competitor LIGHT; partial inhibition
T1 construct: also called lymphotoxin beta receptor; TNFRSF3
Description: (§1) The ability of VHH-Fc fusion proteins to bind to endogenously expressed LTBR on the A549 tumor cell and to inhibit human LIGHT (Acro, cat. no LIT-H5242) binding to A549 cells was assessed. BHA10 was employed in the assay as a positive control. Recombinant human LIGHT was labelled with PE fluorochrome, using PE/R-Phycoerythrin Conjugation Kit—Lightning-Link® (Abcam, cat no ab102918), following the manufacturer's instructions. 1×10⁶ cells were resuspended in the FACS buffer (1% BSA, 0.1% Sodium Azide in PBS), and 50 ul was added to each well ([…]) of a 96-U bottom plate. The cells were washed and resuspended in 25 ul of antibody dilution (2× final concentration) followed by 0.5 h incubation at 4° C., 25 ul of PE labelled LIGHT at 48 nM (2× final concentration) in FACS buffer was subsequently added to the cells and additionally incubated for 1 h at 4° C. […] Next, cells were extensively washed and fixed with Paraformaldehyde Solution, 4% in PBS (Thermo Scientific, cat no J19943.K2) for 20 mins, following the manufacturer's instructions. The cells were then washed, resuspended in PBS, and read on Beckman Coulter CytoFLEX. The data were analysed using FloJo V10 and GraphPad Prism v9. The IC50 and EC50 values can be found in.

[2] = target: T1, human LTBR endogenously expressed on …; assay: flow cytometry, A549 cells
Description: In short, 1×10⁶ cells were resuspended in the FACS buffer (1% BSA, 0.1% Sodium Azide in PBS), and 50 μl was added to each well (5×10⁴ cells/well) of a 96-U bottom plate. The cells were washed once and resuspended in 50 μl/well of FACS buffer containing a 1:3, 11-point series dilutions of constructs 4.1-4.6 and clones 4.8-4.9 followed by 1 h incubation at 4° C. […] Next, cells were washed and resuspended in FACS buffer and read on Beckman Coulter CytoFLEX. The data were analysed using FloJo V10 and GraphPad Prism v9. Clone 4.7 was tested for binding to A375 (LTBR positive cell line) and the HEK293-FAP overexpressing cell line, as described in examples 2.4 and 3.5. The EC50 values can be found in.

[3] = target: T1, human LTBR endogenously expressed on …; assay: cell-based or functional assay
[4] = target: T1, human LTBR endogenously expressed on …; assay: flow cytometry, A549 cells; remark: listed apart in the source
Description: as §1

[5] = target: T1, human LTBR endogenously expressed on …; assay: cell-based or functional assay; remark: listed apart in the source
[6] = target: T1, human LTBR endogenously expressed on …; assay: cell-based or functional assay; remark: listed apart in the source

B1: BHA10 (antibody, V domains shown)
VH: QVQLVQSGAEVKKPGSSVKVSCKASGYTFTTYYLHWVRQAPGQGLEWMGWIYPGNVHAQYNEKFKGRVTITADKSTSTAYMELSSLRSEDTAVYYCARSWEGFPYWGQGTTVTVSS
VL: DIQMTQSPSSLSASVGDRVTITCKASQNVGINVAWYQQKPGKAPKSLISSASYRYSGVPSRFSGSGSGTDFTLTISSLQPEDFATYFCQQYDTYPFTFGQGTKVEIK
notes: as disclosed in WO2004002431; also called BHA10 (anti-LTBR); monospecific anti-LTBR agonist
- IC50 [1]: 0.67 nM
- EC50 [2]: 0.055 nM
- HepG2 Reporter assay (NFKB activation-induced luciferase activity) EC50 [3]: 0.012 nM
- EC50 [4]: 0.78 nM
- HepG2 reporter assay EC50 (w/o cross-linking antibody) [5]: 0.052 nM
- HepG2 reporter assay EC50 (with cross-linking antibody) [5]: 0.029 nM
- HCC1187 chemokine induction assay (CCL19) EC50 [6]: 0.53 nM
